The values below come from the RNAGym collection of RNA variant scans (doi:10.1093/molbev/msab373).

Sequences and labels used below:
B1: Azoarcus group I ribozyme (parent)
chain: GUGCCUUGCGCCGGGAAACCACGCAAGGGAUGGUGUCAAAUUCGGCGAAACCUAAGCGCCCGCCCGGGCGUAUGGCAACGCCGAGCCAAGCUUCGGCGCCUGCGCCGAUGAAGGUGUAGAGACUAGACGGCACCCACCUAAGGCAAACGCUAUGGUGAAGGCAUAGUCCAGGGAGUGGCGAAAGUCACACAAACCGG

In the data set the parent is B1. Description: reverse-splicing fitness (ratio to wild type); higher = more active; in vitro selection; Mg2+ level not given. A digest of the protocol:
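An in vitro group I ribozyme library with randomized positions was T7-transcribed and gel-purified. In triplicate, 10 pmol RNA in EPPS pH 7.5 was reacted with 50 pmoles of a 30-nt RNA substrate for 1 h at 37 °C across several added MgCl2 levels (1–48 mM), then stopped with EDTA. Products were reverse transcribed from a substrate-complementary primer, PCR-amplified and sequenced (HiSeq 4000). Fitness is a variant's read proportion after selection over that before, normalised to wild type.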
Consider C82U A111U U176C, for which the reverse-splicing fitness turned out to be 0.173.
Then A111U A120G A145C C150G U176A, with 0.00783; and C82G A111U A120C A145U C150G C169U U176G, with 0.00561; and A111G A120C A145G, with 0.688.
C82G A111C A145U U176C: the reverse-splicing fitness is 0.136.
Then C82U A111G A145G C150A U176G, with 0.0108; and C82G A120U C150U C169A U176C, with 0.00267.
Take A111U A120C A145U C150G C169U: the reverse-splicing fitness was 0.0242.
In the case of C82A A111G A145U C150A C169G U176C it was 0.016; in that of C82A A111U A145U C150A C169G, 0.00786.
For the variant C82U A111U A120C C150G C169U, the reverse-splicing fitness was 0.00868.
In the case of C82U A111U A120U A145U C150A C169G U176A it was 0.00311; in that of C82U A111U A120C A145G C169A U176G, 0.00456; in that of A145C C150A C169G U176G, 0.00531.
In the case of C82U A111U A120G A145G C150G C169G it was 0.00719.
Then C82G A111C A120G C169A U176G, with 0.00442.
A111C C150U C169G U176A: the reverse-splicing fitness was determined as 0.014.
In the case of C82G A111C A120G C169G U176G it was 0.0044; in that of A120C A145G C150A C169G U176G, 0.00453; in that of C82U A120U A145U C169A U176A, 0.00185.
Then C82U A120C C150U C169A, with 0.00876; and C82U A120U C150G C169G U176A, with 0.00396.
With C82A A111U A145U C150U C169G U176C, the reverse-splicing fitness was 0.0156.
Then C82U A111C C169G U176C, with 0.024.
Regarding A111U A145G C150G U176C, the reverse-splicing fitness came to 0.171.
On to A111C A120G A145C C169A U176A, for which the reverse-splicing fitness was 0.0154.
As for C82G A120U A145G C169G U176C, the reverse-splicing fitness came to 0.00438.
With C82A A111G A145U C150G C169A U176A, the reverse-splicing fitness was 0.0104.
Take A111G A120C A145U C150G C169G U176C: the reverse-splicing fitness amounted to 0.00451.
In the case of A145G C150G U176C it was 0.371; in that of A111C A120C A145G C169U, 0.184; in that of C82A A111C A145C C150U, 0.0486.
In the case of A111G C150U it was 0.905; in that of C82U A120U A145G C150A C169G U176G, 0.00193.
In the case of C82A A111C A145U C169G U176G it was 0.00756.
On to A111C A145U C169U, for which the reverse-splicing fitness stood at 0.116.
Then C82G A120U C150G U176A, with 0.0062; and C82A A111C A120C A145C C169U U176A, with 0.0123.
In the case of C82G A111C A120U A145C C150U C169U it was 0.003.
In the case of C82A A111G A120C A145U C150A C169A U176C it was 0.0134; in that of C82U A111U A120U A145U C150U C169A, 0.00254.
Turning to C82U A111C A120U A145G C150G C169G U176C, the reverse-splicing fitness is 0.00782.
In the case of A111C A120U A145G C150G U176C it was 0.0349; in that of A111C A120C A145C C150G C169U U176C, 0.0163.
Then C82A A111G A120G C150U C169A U176A, with 0.0153; and C82U A120G A145G C150U C169G U176C, with 0.0207.
Then C82A A111G C150A C169A U176G, with 0.0074.
In the case of C82A A111C A120U A145U C150U C169U U176A, the reverse-splicing fitness came to 0.00402.
Then C82G A145U C150G C169U U176A, with 0.00876; and C82G A111G A145C C169U U176G, with 0.00545.
Then C82U A111G A120G A145C C169A U176C, with 0.00572.
In the case of C82G A111U A120G A145U C150A C169G it was 0.00835; in that of A111C A120G C150U, 0.0912.
With C82U A111G A120U A145U C150U U176C, the reverse-splicing fitness came to 0.013.
In the case of A111G A120G A145U C169U U176G it was 0.0103.
In the case of C82U A111U A120C A145C C150G it was 0.00726.
With C82G A111G A120G A145G C150A C169U, the reverse-splicing fitness came out at 0.0102.
On to C82G A111C A120C A145U C150A C169U, for which the reverse-splicing fitness was determined as 0.011.
Then C82U A120U C150U U176C, with 0.0451; and C82G A111U A120G U176G, with 0.00905; and C82U A145U C150G C169U U176A, with 0.00782.
As to A120U A145C C150A C169A, the reverse-splicing fitness came out at 0.0021.
Then C82A A111G A120C A145U C150U C169G U176A, with 0.0145; and C82A A111U C150G C169U U176G, with 0.00599; and A111U A120G A145G C150A C169U U176G, with 0.00606.
In the case of C82G A111C A120G A145G C150U C169A U176A it was 0.0152.
In the case of C82A A111C A120C A145C U176G it was 0.00663; in that of C82A A111G A120G C150G C169G U176A, 0.00689; in that of C82A A111U A120C A145U C169G U176C, 0.0253.
As to C82A A111C A120U C150A C169U U176A, the reverse-splicing fitness is 0.00806.
In the case of A111C A120G A145C C150G U176G it was 0.00301; in that of A111C A120G A145C C150A C169U U176A, 0.0178.
In the case of C82A A111G A120C A145U C150G C169A it was 0.00895.
Then C82U A111C A120C A145G C150A U176C, with 0.0208.
With A111C A120C C150G U176A, the reverse-splicing fitness is 0.0144.
In the case of A111C A120C C150G U176G it was 0.00388; in that of C82U A111G A120C A145U C169U U176C, 0.0132; in that of C82U A111G A120C A145U C169U U176A, 0.0139.
With C82A A111G A120G, the reverse-splicing fitness was 0.0164.
Then C82A A111C A120G C150G C169U U176A, with 0.00801; and C82A A111U C150G U176C, with 0.015.
In the case of A111U A120C C150A C169G U176G it was 0.00525; in that of C82U A111U A120U C150A, 0.00701.
